The values that follow come from article PMC10684670.

For one series, the target named is rhNKp30-his protein (UniProt O14931). Description: flow cytometry on cells. The note with it: 293T cells stably expressing B7-H6, stained with his-tagged NKp30; parent: est. 1.0; read off a plot. A general note: A flow cytometer gives signals particle by particle.
The nature of another series: CHX chase, WB, 293T. The following applies: glycan lost; control: DMSO.
The nature of a further series: CHX chase, WB, U87. The note with it: glycan lost; control: DMSO.
The nature of series [1]: CHX chase, WB, stable 293T. The note with it: glycan lost; control: wild type.
Series [2] in a line: surface B7-H6 flow cytometry, HEK293T. The following applies: glycan lost; control: wild type.
Series [3] in a line: surface B7-H6 flow cytometry, HCT-116. The note with it: glycan lost; control: wild type.
Series [4] is described as follows: WB of TCA-precipitated supernatant, HCT-116. The following applies: glycan lost; control: wild type.
A short description of series [5]: WB of TCA-precipitated supernatant, HEK293T. The following applies: glycan lost; control: wild type.

As to “B7-H6, wild type, stably expressed on B7-H6 knockout 293T cells (from UniProt Q68D85) N411Q”, in the series with rhNKp30-his protein, the ratio to parent amounted to 0.94.

B1: B7-H6: tunicamycin (protein)
parent chain: MTWRAAASTCAALLILLWALTTEGDLKVEMMAGGTQITPLNDNVTIFCNIFYSQPLNITSMGITWFWKSLTFDKEVKVFEFFGDHQEAFRPGAIVSPWRLKSGDASLRLPGIQLEEAGEYRCEVVVTPLKAQGTVQLEVVASPASRLLLDQVGMKENEDKYMCESSGFYPEAINITWEKQTQKFPHPIEISEDVITGPTIKNMDGTFNVTSCLKLNSSQEDPGTVYQCVVRHASLHTPLRSNFTLTAARHSLSETEKTDNFSIHWWPISFIGVGLVLLIVLIPWKKICNKSSSAYTPLKCILKHWNSFDTQTLKKEHLIFFCTRAWPSYQLQDGEAWPPEGSVNINTIQQLDVFCRQEGKWSEVPYVQAFFALRDNPDLCQCCRIDPALLTVTSGKSIDDNSTKSEKQTPREHSDAVPDAPILPVSPIWEPPPATTSTTPVLSSQPPTLLLPLQ
On to B1, for which the “degradation_or_half_life, half_life” value in “CHX chase, WB, 293T” is recorded as “decreases, 17.36 vs 47.42”; in the series “CHX chase, WB, U87”, “decreases, 12.83 vs 27.14”.

B2: B7-H6: N43Q (protein)
parent chain: B1 parent chain
With B2, in series [1], the “degradation_or_half_life, half_life” value is reported as “decreases, 5 vs about 52”. In addition, the localisation_or_trafficking entry in series [2] and in series [3] was “decreases” in each case.

B3: B7-H6: N208Q (protein)
parent chain: B1 parent chain
For B3, the “degradation_or_half_life, half_life” value in series [1] was “decreases, 15 vs about 52”. Further, the localisation_or_trafficking entry in series [2] and in series [3] was “decreases” each time. The “other: shedding of soluble B7-H6” value in series [4] and in series [5] was “increases” each time.
